This is an account of results in paper PMC3178552 (PLoS Pathogens, 2011).

As a reminder, the stoichiometry N is the number of molecules, sites or subunits per partner or assembly.

For series [1], the target named is T1, vesicular stomatitis virus nucleoprotein lacking its 21 N-terminal residues (N[change]), MBP tag removed (vesicular stomatitis virus, UniProt P03521 22-422). In words: SEC-MALS. As to conditions: both partners purified.
Series [2] addresses T1, vesicular stomatitis virus ….
The series “SEC” deals with the molecule itself. Put plainly: SEC. In general terms: Size exclusion chromatography separates by hydrodynamic size, large species first.
The target in series [3] is P60: the first 60 amino acids of VSV phosphoprotein P, a two-amino acid linker and a C-terminal His6-tag (vesicular stomatitis virus, UniProt P03520 1-60). In words: NMR titration. The note with it: both partners purified.

Where two headings read alike, the source gives them in different places.

B1: full-length VSV phosphoprotein P dimer (natural protein)
chain: MDNLTKVREYLKSYSRLDQAVGEIDEIEAQRAEKSNYELFQEDGVEEHTKPSYFQAADDSDTESEPEIEDNQGLYAQDPEAEQVEGFIQGPLDDYADEEVDVVFTSDWKPPELESDEHGKTLRLTSPEGLSGEQKSQWLSTIKAVVQSAKYWNLAECTFEASGEGVIMKERQITPDVYKVTPVMNTHPSQSEAVSDVWSLSKTSMTFQPKKASLQPLTISLDELFSSRGEFISVGGDGRMSHKEAILLGLRYKKLYNQARVKYSL
For B1, the “stoichiometry N” value in series [1] came out at 2 P molecules per NΔ21.
For VREYLKSYSRLDQAVGEIDEIEAQRAEKSNYELF [shorter peptide encompassing residues 7 to 40 of P], the “stoichiometry N” value in series [2] turned out to be 1.

B2: N[change] in fusion with an N-terminal maltose binding protein tag (MBP-N[change]) (domain or fragment)
chain: EDPVEYPADYFRKSKEIPLYINTTKSLSDLRGYVYQGLKSGNVSIIHVNSYLYGALKDIRGKLDKDWSSFGINIGKAGDTIGIFDLVSLKALDGVLPDGVSDASRTSADDKWLPLYLLGLYRVGRTQMPEYRKKLMDGLTNQCKMINEQFEPLVPEGRDIFDVWGNDSNYTKIVAAVDMFFHMFKKHECASFRYGTIVSRFKDCAALATFGHLCKITGMSTEDVTTWILNREVADEMVQMMLPGQEIDKADSYMPYLIDFGLSSKSPYSSVKNPAFHFWGQLTALLLRSTRARNARQPDDIEYTSLTTAGLLYAYAVGSSADLAQQFCVGDNKYTPDDSTGGLTTNAPPQGRDVVEWLGWFEDQNRKPTPDMMQYAKRAVMSLQGLREKTIGKYAKSEFDK
Consider B2, for which the binding result (in the series “SEC”; in series [3]) was “binds” in each case.
